These results are taken from patent US8470576B2, “Group of novel enantioselective microbial nitrile hydratases with broad substrate specificity” (B.R.A.I.N. AG, priority 2006, dated 2013).

Holding throughout (assay type): biochemical
A short description of data set [1]: Dependence of NHase activity on the pH. The protocol:
Cell free crude extracts from Raoultella terrigena (77.1) were incubated for 5 min at 30° C. and the indicated pH-values. The reaction was subsequently started by addition of substrate (1 mM PPN). The activity was determined as described in example 4. Buffers used: McIlvaine buffer: ˜0.1 M citrate/phosphate-buffer; Tris-buffer: 0.1 M Tris/HCl-buffer
Cell free crude extracts from E. coli BL21 (DE3) pET22-77.1a/pET26—77.1b were incubated for 5 min at 30° C. and the indicated pH-values. The reaction was subsequently started by addition of substrate (1 mM PPN). The activity was determined as described in example 4. Buffers used: McIlvaine buffer: ˜0.1 M citrate/phosphate-buffer; Tris-buffer: 0.1 M Tris/HCl-buffer
Cell free crude extracts from Klebsiella sp. (77.1) and E. coli BL21 (DE3) pET22—77.1a/pET26—77.1b were incubated for 5 min at 30° C. and the indicated pH-values. The reaction was subsequently started by addition of substrate (1 mM PPN). The activity was determined as described in example 4. Buffers used: McIlvaine buffer: ˜0.1 M citrate/phosphate-buffer
Lyophilized cells were incubated for 5 min at the indicated pH-values. The reaction was subsequently started by addition of substrate (1 mM PPN). The activity was determined as described in example 4. Buffers used: McIlvaine buffer: ˜0.1 M citrate/phosphate-buffer; Tris-buffer: 0.1 M Tris/HCl-buffer
Cell free crude extracts were incubated for 5 min at the indicated pH-values. The reaction was subsequently started by addition of substrate (1 mM PPN). The activity was determined as described in example 4. Buffers used: McIlvaine buffer: ˜0.1 M citrate/phosphate-buffer; Tris-buffer: 0.1 M Tris/HCl-buffer
If not otherwise indicated enzyme samples were prepared as follows: the cells from 1 ml of the culture were washed with 50 mM Tris/HCl pH 7.5 and resuspended in 750 μl of the same buffer. This suspension was incubated at 30° C. in a thermomixer at 1000 rpm. The biotransformation was started by addition of the substrate 2-phenylpropionitrile (PPN) in 50 mM Tris/HCl pH 7.5. The concentration of the substrate was 1 mM, if not otherwise stated. The reaction was stopped after 1 min, 5 min or 10 min as indicated by addition of 1 M HCl. Cells were removed by centrifugation and the supernatant analysed by HPLC for the presence of the corresponding amide. The HPLC analysis was carried out on a system comprising a Surveyor 4 channel Pump, AutoSampler and UVNIS detector at 210 nm from Thermo Finnigan on a Grom-Sil 1200DS-3 cp 3 μm (125×4.6 mm) reverse phase column. As mobile phase, acetonitrile and 0.3% H3PO4 were used in a ratio of 50:50 at a flow of 0.7 ml/min, respectively.
The pH-optimum for the enzyme according to Seq ID No. 2 and 4 (Raoultella terrigena, 77.1) has its pH-optimum at pH 6.75 (FIG. 27).
The NHase according to Seq ID. No. 18 and 20 (Klebsiella oxytoca, 38.1.2) was determined to be between pH 7.0-pH 7.5 (FIG. 28 and FIG. 29). […] At a pH 10, the residual activity of the enzyme is about 65-75%.

The nature of data set [2]: Enantioselectivity of NHases towards rac-2-phenylpropionitrile (washed cells, chiral HPLC). As to conditions: for E-value: kinetic resolution of rac-2-phenylpropionitrile; for enantiopreference: rac-2-phenylpropionitrile. The protocol: (§1) For the determination of enantioselectivity towards rac-mandelonitrile and 2-phenylpropionitrile 40-50 mg of washed cells were resuspended in 1 ml of 50 mM Tris/HCl pH 7.5. 100 μl of cell suspension were mixed with 800 μl 50 mM Tris/HCl pH 7.5 and incubated at 30° C. in a thermomixer at 1000 rpm. The biotransformation was started by addition of 100 μl of 10 mM rac-mandelonitrile or rac-2-phenylpropionitrile in 50 mM Tris/HCl pH 7.5. The reaction was stopped by addition of 100 μl 1M HCl after 1, 5 or 10 min. Cells were removed by centrifugation and the supernatant analysed by chiral HPLC for the presence of mandeloamide and phenylpropionamide, respectively. rac-Mandeloamide was analysed on a HPLC comprising a Surveyor 4 channel Pump, AutoSampler and UVNIS detector at 210 nm from Thermo Finnigan on a Nucleodex β-OH column (Macherey & Nagel) using 50% methanol/water:water (40:60) as mobile phase at a flow rate of 0.7 ml/min. The apparent enantiomeric ratio (Eapp) of the conversion of mandelonitrile was calculated according to Straathof and Jongejan for asymmetric catalysis (see example 9). In case of 2-phenylpropionamide, the samples were lyophilized and resuspended in n-hexane: 2-propanol (80:20). Prior to injection, the samples were additionally dried with sodium sulfate and were centrifugated at 16,000 g for 5 min. The supernatants were analyzed using a Chiracel OD column (Daicel) on a Spectra System (AS3000, P2000, UV2000 at 210 nm) from Thermo Separation Products with n-hexane: 2-propanol (80:20) as mobile phase at a flow rate of 0.5 ml/min. The enantiomeric ratio (E) of the conversion of PPN was calculated according to Chen et al.

Data set [3] in a line: Enantioselectivity of NHases towards rac-mandelonitrile (washed cells, chiral HPLC). As to conditions: for enantiopreference: (R/S)-mandelonitrile; for Eapp-value: kinetic resolution of (R/S)-mandelonitrile; for Eapp-value heterologously expressed / Eapp-value homologously expressed: rac-mandelonitrile; for Eapp-value heterologously expressed: heterologously expressed NHase; for Eapp-value homologously expressed: homologously expressed NHase. The method, then:
as §1, with “al. […]” for “al.”

Changes are numbered by the printed parent chain.

B1: NHase Seq ID No. 2 and 4: nitrile hydratase of Raoultella terrigena strain 77.1, α-subunit SEQ ID NO 2, β-subunit SEQ ID NO 4 (protein)
alpha: MSHKHDHDHTEPPVDIELRVRALESLLQEKGLIDPAALDELIDTYEHKVGPRNGAQVVARAWSDPEYKRRLMENATAAISELGFSGIQGEDMLVVENTPDVHNVTVCTLCSCYPWPVLGLPPVWYKSAPYRSRIVIDPRGVLAEFGLHIPESKEIRVWDSSAELRYLVLPERPAGTDGWSEAQLSELISRDSMIGTGVVTAP
beta: MNGIHDLGGMHGFGPIPTEENEPYFHHEWERRVFPMFASLFVGVHFNVDEFRHSIECMPPADYLQSSYYEHWLHAFETLLLAKGVITVDELWGGAKPTLCKPGTPVLTQDMVSMVVSTGGSARVSHDVAPRFRVGDRVRTKNFNPTTHTRLPRYARDKVGRIEIAHGVFITPDTAAHGLGEHPQHVYSVSFTAQELWGEPRPDNVFIDLWDDYLEEA
modifications: Raoultella terrigena, strain 77.1
Consider B1, for which the pH-optimum in data set [1] (1 mM PPN) came to 6.75. In data set [1] (homologously produced enzyme), the “residual activity at pH 4.0” value is “about 6%”. Further, in data set [1], the “residual activity at pH 10” value is “about 27%”. Besides, in data set [1] (recombinantly produced enzyme), the “activity at pH<6.0” value was “no activity”. For the same molecule, in data set [2], the E-value turned out to be 47 and the enantiopreference result is recorded as “(S)”. In data set [3], the enantiopreference entry is “(S)”, the Eapp-value is on record as 20, the Eapp-value heterologously expressed was 20 and the Eapp-value homologously expressed came out at 19.

B2: NHase Seq ID No. 18 and 20: nitrile hydratase of Klebsiella oxytoca strain 38.1.2, α-subunit SEQ ID NO 18, β-subunit SEQ ID NO 20 (protein)
alpha: B1 alpha with E11Q, S80A, S152N, D177E, S189T
beta: MNGIHDLGGMHGLGPIPTEENEPYFHHEWERRVFPLFASLFVGGHFNVDEFRHAIERMAPTEYLQSSYYEHWLHAFETLLLAKGVITVEELWGGAKPAPCKPGTPVLTQEMVSMVVSTGGSARVSHDVAPRFRVGDWVRTKNFNPTTHTRLPRYARDKVGRIEIAHGVFITPDTAAHGLGEHPQHVYSVSFTAQALWGEPRPDKVFIDLWDDYLEEA
modifications: Klebsiella oxytoca, strain 38.1.2
On to B2, for which the “activity at pH-value<6” value in data set [1] (crude cell extracts) is reported as “inactivated”. In data set [1] (lyophilized cells), the “residual activity at pH 3.0” value was “about 10%”. Further, the “residual activity at pH 10” value in data set [1] is 65-75%. Further, in data set [2], the E-value is recorded as 35 and the enantiopreference entry was “(S)”. In data set [3], the enantiopreference entry is listed as “(S)”, the Eapp-value turned out to be 19, the Eapp-value heterologously expressed is on record as 19 and the Eapp-value homologously expressed is given as 17.
